Measurements from the nanobody polyreactivity screen of Harvey et al. (2022).

experiment: yeast display, Sf9 membrane polyspecificity reagent, FACS + sequencing; frameworks hold sequencing errors
Outline: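 Using colony PCR, genes from sorted yeast display clones were amplified, then sequenced on MiSeq at 2 × 250 and filtered by CDR length. The clones had been stained with 10% biotinylated, detergent-solubilized Sf9 membrane reagent for 1 hour at 4 °C and sorted by FACS into low and high (top ~1%) gates on anti-HA and streptavidin fluorescence. Polyreactivity labels come from the gate of origin.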

Sequence | polyreactivity (PSR sort gate)
QVQLVESGGGLVQAGRSLRLSCAASGRTFRGYAMGWYRQAPGKERELVAAITWRGGSTYYADSVKGRFTISRDNGKNTVYLLMNSLKPEDCAVYYCNARQWPLAYEYWGLGTQVTVSS | high polyreactivity
QVQLVESGGGLVQAGRSLRLSCAASGRTFVFNAMGWYRQAPGKERELVARITLSGGSTYYADSVKGRFTISRDNAKNTVYLQMNSLKPEDTAVYYCAASHYFWFVQNDSDYWGQGTQVTVSS | low polyreactivity
QVQLVESGGGLVQAGRSLRLSCAASGRTLHQYDMGWFRQAPGKEREFVAVIDSSDGSTYYADSVKGRFTISRDNVKNTVYLQMNSLKPEDSAVYYCLGGYYYLQYDYWGQGTQVTVSS | low polyreactivity
QVQLVESGGGLVQAGRSLRLSCAASGRTYGIYAMGWYRQAPGKERQLVAAITWSGDSTYYADSVKGRFTISRDNAKNTVYLQMNSLKPEDTAVYYCAADYVGVTSVRYDYWGQGTQVTVSS | low polyreactivity
QVQLVESGGGLVQAGRSLRLSCAASGSIFRIYAMGWYGQAPGKERELVAAITWSGGGTYYADSVKGRFTNSRDNAKNTVYLQMYSLKPEDTAVYYCAADYWGYDIYYGLSERESWGQGTQVTVSS | high polyreactivity
QVQLVESGGGLVQAGRSLRLSCAASGSNFLTNTMGWYRQAPGKERELVAAITLRGGRTYYADSVKGRFTISRDNAKNTVYLHMNSLKPEDTAVYYCNARNYYYPSDRDYWGQGTQVTGSS | low polyreactivity
QVQLVESGGGLVQAGRSLRLSCAASGSTFDQYDMGWYRQAPGKERELVAAISQSGDRTYYADSVKARFTISRDYAKTTVYLQMNSLQPDDTAVYYCADDGVSQDYYYRYDYWGQCTQVTVSS | low polyreactivity
QVQLVESGGGLVQAGRSLRLSCAASGSTLQNNGMGWYRQAPGKERELVAAISIGGDTNYADSVKGRFTISRDNAKNTEMNSMKPEDTAGYYCNTDYFGSQVVVIFDFWGQGTQVTVSS | low polyreactivity
QVQLVESGGGLVQAGRSLRLSCAASGSTSERYDMGWYRQAPGKERELVATITWSGGDTHYADSVKGRFTISRDNAKNSVYLQLNSLKPEDTAVYYCAAEYTFVWGMWYDYWGQGTQVTVSS | low polyreactivity
QVQLVESGGGLVQAGRSLRLSCAASVSIFRPNAMGWYRQAPGKERDLVAAISSSGGSTYYSDSVKGRFTISRDNAKNTVYLQMNSLKPDDTAVYYCAAESLSTWIHSRDSWGQGTQVTVSS | low polyreactivity
QVQLVESGGGLVQAGRSLRLSCPASGSIFIIYAMGWYRQQPGKERELVAAISASGGITYYADSVKGRFTISRDNAKNTVYLQMNRLKPEDTAVYYCAARRYRYFWVPRPYDYWGQGTQVTVSS | high polyreactivity
QVQLVESGGGLVQAGRSLRLSSAASGSIVAPNPMGWYRQAPGKEREYVAAITLDDGRTYYADSVKGRFTISRDNSNNTVYLHMNSRKPEDTAVYYCNAEWRGYSVYWRTRYDSWGQGTHVTVSS | low polyreactivity
QVQLVESGGGLVQAGRSLRLSSAASGSTFYYNPMGWYRQAPGKERELVAAISGGDSTYYADSVKGRFTISRDNAKNTVYLQMNSMKPEDTAVYYCAAASRRRSDGRRYGYWGQGTQVTVSS | high polyreactivity
QVQLVESGGGLVQAGRSLRLTCAASGRTFWWYAMGWYRQAPGKEWEFVAAISQRGTSTYYADSVKGRFTISRDNAKNTVYLQMNSLKPEDTAVYDCAATVYPSWYVLFTARRMDYWGQGTQVTVSS | high polyreactivity
QVQLVESGGGLVQAGRSLRVRCAASGSTFGLYAKGWYRQAPGKERELVADITWSGGTTYYADSVMGRFTFSRDNAKNTVYLEINSLKPEDTAVYYCAARYPWVYDDFDYWGQGTQVNVSS | low polyreactivity
QVQLVESGGGLVQAGSSLRLSCAASGSTFVNNAMGWYRQAPGKERELVAAITSGGSTNYADSVKGRFTISRDNAKNTVYLQMNSLKPEDTAVYYCNADGDSWYTGIPAVSHGYWGQGTQVTVSS | low polyreactivity
QVQLVESGGGLVQAGVSHRLSCAASGSIYYYYAMGWYRQAPGKESELVAGITTSGGSTYYAESVKVRFTISRDNAKNTVYLQMISLKPEDNAVYYCAAYDYISSTYFLDDYWGQGTQVTVSS | low polyreactivity
QVQLVESGGGLVQAGVSLLLSCAATGIIFSYYAMGWYRQAPGKERELVAAISWNSGSTYYADSVKGRFTISRDNAKNTVYLQMNSLKPEDTAVYYCAAESYYSYSYYRPYEYYYWGQGNQVTVSS | high polyreactivity
QVQLVESGGGLVQAGVSLLLTCAASGRISFRYAMVWYRQAPGKERELVAAINRGGITNYADSVKGRFTISRDNAKNTVYLKMNSLKKEDTAVYYCAARYASPRYKSKMDYWGQGTQVTVSS | high polyreactivity
QVQLVESGGGLVQAGVSLPLSCAASGIIFFSYAMGWYRPAPGKERELVAAITSRGTSTYYADSVKGRFTISRDNAKNTVYLQLISLKPEDTAVYYCAARWLWRASKVDYWGQGTQVTLSS | high polyreactivity
QVQLVESGGGLVQAGVSLRFSCAASGYIFDVNALGWYRQEPGKERELVAAISQRGTRTYYADSVKGRFTITRDNANNTVFLQMNSLKPEYTAVYYCNRGGWRQYDSWGQGTQVTVSS | high polyreactivity
QVQLVESGGGLVQAGVSLRLICAASGRTFGRSVMGWYRQAPGKERELVAAITSSSSSTYADSVKGRFTISRDNAKNTVYVQMNSLKPEDTEVYYCNKRYPSRHLPEYDYWGQGTQVSVSS | high polyreactivity

Sequence | polyreactivity (PSR sort gate)
QVQLVESGGGLVQAGVSLRLSCAASASTFSIYAMGWYRHAPGKERELVAAIDSGGRTKYADSVKGRFTISRDNAKNPVYLQMNSLKPEDTAVYYWAAVFRGWWLYDYWGLGTQVTVSS | low polyreactivity
QVQLVESGGGLVQAGVSLRLSCAASGFILDYNTMGWYRQAPGKERELVAAISSSGDTTYYADSVKGRFTISRDNAKNTVYLQMNSLKREDTAVYYCAREYGVGYEYWGLGTQVTVSS | low polyreactivity
QVQLVESGGGLVQAGVSLRLSCAASGFTFGRYAMGWYRQAPGKERELVAAISNSGGSTYYADSVKGRFTISRDNAKNTVYLQMNSLKPEATAVYYCAARDSYWSVYYWGQGTQVTVSS | high polyreactivity
QVQLVESGGGLVQAGVSLRLSCAASGLIFGQNAMGWYRQAPAKERELVAAISQRGGTYYADSVKGRFTISRDNSKNTVYLQMNSLKPEDTAVYYCAARVGLQPGRYYLRYDYWGQGTQVTVSS | low polyreactivity
QVQLVESGGGLVQAGVSLRLSCAASGLIFWAYAMGWYRQAPGKERELVAAINSGGRTYYADSVKGRFTISRDNAKNTVYLQMNSLKPEDTAVYYCAAAGVYSSDYWGQCTQVTVSS | low polyreactivity
QVQLVESGGGLVQAGVSLRLSCAASGNTFGLYAMGWYRQAPGKEREFVADITTDGGTTYYADSVKGRFTISRDNAKNTVYLQMNSLKPEDTAVYYCAKLGTFGQHQYDYWGQGTQVTVSS | low polyreactivity
QVQLVESGGGLVQAGVSLRLSCAASGRIFIVYAMGWYRQAPGKERELVAAISWRGGNTYYADSVKARFTISRDNAKNTVYLQMNSLKPEDTAVYYCAARQYGTAAFDYWGQGTQVTVSS | high polyreactivity
QVQLVESGGGLVQAGVSLRLSCAASGRIFPSYAMGWYRQAPGKEREMVAAITSSDSTYYADSVKGRFTISRDNAKNTVYLQMNSLKPDDTAVYYCAAAYSYSGWWWFGYWGQGTQVTVSS | high polyreactivity
QVQLVESGGGLVQAGVSLRLSCAASGSIFDVYAMGWYRQAPGKERELVATISYGDSSTYYADSVKGRFTISRDNAKNTVYLQMNSLKPEDTAVYYCAADYLTAPRWRQWGEMDYWGQGTQVTVSS | low polyreactivity
QVQLVESGGGLVQAGVSLRLSCAASGSIFRYYAMGWYRQAPGKERELVAAITVGGSTYYADSVKGRFTISRDNAKNTVYLQMNSLKPEDTAVYYCAADGDKRTKGYDYWGQGTQVTVSS | high polyreactivity
QVQLVESGGGLVQAGVSLRLSCAASGSIFSKYVMGWYRQAPGKERELVAAISWSGTRTYYADSVKGRFTISRDYAKNSVYLQMNSLKPEDTAVYYCAKYIFTTGLGYWGQGTQVTVSS | high polyreactivity
QVQLVESGGGLVQAGVSLRLSCAASGSIFSYNAMGWYRQAPGKERELVAAINNGGSTYYADSVKGRFTISRDNAKNTVYLQMNSLKPEDTAVYYCAAQSGHYAEYNYWGQGTQVTVSS | high polyreactivity
QVQLVESGGGLVQAGVSLRLSCAASGSSLARNAMGWYRQAPGKERELVAAISRRSGSTYYADSVKGRFTFSRDNAKNTVYLQMNSLKPEDTAVYYCAKLGIVHQYDYWGQGTQVTVSS | low polyreactivity
QVQLVESGGGLVQAGVSLRLSCAASGSTFTTNVMGWYIQAPGKERELVAAISWSSGSTYYADSVKGRFTISRDNAKNTVYLQMNSLKPEDTAVYYCAARLVIFYPYSRYYYWGQGTQVTVSS | high polyreactivity
QVQLVESGGGLVQAGVSLRLSCAASGTFYSNAMGWYRQAPGKERELVAAINTSGSTNYADSVKGRFTISRDNAKNTVYLQMNSLKPEDTAVYYCAAGIVVTGYDYWGQGTQVTVSS | low polyreactivity
QVQLVESGGGLVQAGVSLRLSCAASGTTFGLNPMGWYRQAPGKERELVAAISTSGGSTYYADSVKGRFTISRDNAKNSVYLQMISLKPEDTAVYYCAAEVDAGYDYSQYYYWGQGTQVTVSS | low polyreactivity
QVQLVESGGGLVQAGVSLRLSCAATGFPLQVYDMGWYRQAPGKEMELVADISGSGDSTNYADSVKGRFTISRDNAKNSVYLQMNSLKPEDTAVYYCAAEVRGGYYGYDYWGQGTQVTVSS | low polyreactivity
QVQLVESGGGLVQAGVSLRLSCAPSGRTFIYYAMGWYRQAPGKERELVATINGITGSTYYADSVKGRFTNSRDNAKNTVYLQMNSLKPEDTAVYYCAKVPRKYRAWMDYWGQGTQVTVSS | high polyreactivity
QVQLVESGGGLVQAGVSLRLSCASSGYTYHVYAMGWYRQAPGKERELVAAISTGDDTTFYADSVKVRFTISRDNAKNTVYLQMNSLKPEDTAVYYCAAAYGTPYGGYDYWGQGTQVTVSS | low polyreactivity
QVQLVESGGGLVQAGVSLRLSSAASGIIFAYYTMGWYRQAPGKERELVAAISWSGGSTYYADSVKGRFTISRDNAKNTVYLQMNSLKPEDTAVYYCAVVSRRTRLPYYYWGQGTQVTVSS | high polyreactivity
QVQLVESGGGLVQARGRLRLSCSASGRTFYGYAMGWYRQATGKERELVASISWSTGSTHYADSVKGRFTISRDNAKNTVYLQMNSLKPEDTAVYYCAAPFWRDSYVQIDYDFWGQGTQVTVSS | low polyreactivity
